We go through 16 variants from the supplement of paper PMC7125110.

In general, kcat refers to the number of substrate molecules converted per active site and unit of time at saturation. One may read the KM as the substrate concentration at which the rate is half of its maximum.

B1: glmS ribozyme (parent)
chain: AUAAAAGCGCCAGAACUACAGAAAUGUAGUUGACGAGGAGGAGGUUUAUCGAAUUUUCGGCGGAUGCCUCCAAA

What all share (settings): with glucosamine-6-phosphate
The variants in data set [1] derive from B1. As to the kind of experiment: kcat; higher = faster cleavage; RNA array. The gist of the method:
(§1)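 E. coli RNA polymerase transcribed barcoded ribozyme variants in situ on sequenced MiSeq chips, which were tracked via a hybridised Cy3 probe at 37 °C. Tiles were imaged over ~14 h after glucosamine-6-phosphate (40 μM to 10 mM) in HEPES/KCl/Mg(OAc)2 buffer was flowed in. Normalised per-tile medians were fit to one- or two-exponential decays for kobs, and kcat and KM came from weighted Michaelis–Menten fits.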

In data set [2] the parent is B1. As to the kind of experiment: KM; higher = weaker cofactor use; RNA array. In a few lines: as §1
In data set [3] the parent is B1. As to the kind of experiment: self-cleavage kobs at 160 uM GlcN6P; higher = faster cleavage; RNA array. In a few lines: as §1
Data set [4] covers variants of B1. Nature of the data set: self-cleavage kobs at 640 uM GlcN6P; higher = faster cleavage; RNA array. The gist of the method: as §1
The variants in data set [5] derive from B1. Nature of the data set: self-cleavage kobs at 2500 uM GlcN6P; higher = faster cleavage; RNA array. The gist of the method:
as §1

Variants of B1 are the subject of data set [6]. As to the kind of experiment: self-cleavage kobs at 10000 uM GlcN6P; higher = faster cleavage; RNA array. In a few lines:
as §1

The variants in data set [7] derive from B1. As to the kind of experiment: self-cleavage kobs at 40 uM GlcN6P; higher = faster cleavage; RNA array. The gist of the method: as §1

± gives the standard error. For some of these results: Variants at the floor of the assay were thinned out. Where only a bound is given, the exact number is not on record here.

As to A15C U56C, the kcat in data set [1] turned out to be 0.00118 ± 0.00019 s⁻¹. The KM in data set [2] stood at 2470 ± 690 µM. The “self-cleavage kobs at 160 uM GlcN6P” value in data set [3] was found to be 8.66e-05 ± 1.7e-05 s⁻¹. Moreover, the “self-cleavage kobs at 640 uM GlcN6P” value in data set [4] came out at 0.000202 ± 3.2e-05 s⁻¹. For the same variant, the “self-cleavage kobs at 2500 uM GlcN6P” value in data set [5] was 0.000708 ± 9.2e-05 s⁻¹. Further, the “self-cleavage kobs at 10000 uM GlcN6P” value in data set [6] is 0.000914 ± 9.9e-05 s⁻¹.

As for G43A U45A, the kcat in data set [1] was found to be 5.51e-05 ± 7.6e-07 s⁻¹. The KM in data set [2] came to 2720 ± 100 µM. For the same variant, the “self-cleavage kobs at 2500 uM GlcN6P” value in data set [5] came out at 2.63e-05 ± 1.1e-05 s⁻¹. Further, the “self-cleavage kobs at 10000 uM GlcN6P” value in data set [6] was determined as 4.33e-05 ± 1.3e-05 s⁻¹.

On to C16U U47A, for which the kcat in data set [1] is 0.0299 ± 0.0051 s⁻¹. Moreover, in data set [2], the Michaelis-Menten constant (KM) was 3060 ± 660 µM. Further, the “self-cleavage kobs at 40 uM GlcN6P” value in data set [7] came to 0.0004 ± 7.1e-05 s⁻¹. In addition, the “self-cleavage kobs at 640 uM GlcN6P” value in data set [4] was 0.00515 ± 0.00087 s⁻¹. Besides, the “self-cleavage kobs at 2500 uM GlcN6P” value in data set [5] turned out to be 0.0118 ± 0.003 s⁻¹. For the same variant, the “self-cleavage kobs at 10000 uM GlcN6P” value in data set [6] is 0.0259 ± 0.0068 s⁻¹.

Turning to G32A C68G, the turnover number (kcat) in data set [1] came to 3.18e-05 ± 4.2e-06 s⁻¹. In data set [5], the “self-cleavage kobs at 2500 uM GlcN6P” value amounted to 3.93e-05 ± 1.4e-05 s⁻¹. For the same variant, the “self-cleavage kobs at 10000 uM GlcN6P” value in data set [6] worked out at 2.81e-05 ± 9.3e-06 s⁻¹.

On to U45C U65A C67G, for which the kcat in data set [1] amounted to 0.00116 ± 0.00022 s⁻¹. For the same variant, the Michaelis constant (KM) in data set [2] came out at 1660 ± 630 µM. In data set [7], the “self-cleavage kobs at 40 uM GlcN6P” value stood at 3.4e-05 ± 1.6e-05 s⁻¹. Moreover, the “self-cleavage kobs at 640 uM GlcN6P” value in data set [4] amounted to 0.000279 ± 0.0001 s⁻¹. Also, the “self-cleavage kobs at 10000 uM GlcN6P” value in data set [6] amounted to 0.000996 ± 0.00022 s⁻¹.

With A39U C58A, the kcat in data set [1] turned out to be 0.000543 ± 0.00013 s⁻¹. Also, the “self-cleavage kobs at 2500 uM GlcN6P” value in data set [5] is 8.13e-05 ± 1.4e-05 s⁻¹. Moreover, the “self-cleavage kobs at 10000 uM GlcN6P” value in data set [6] stood at 0.000214 ± 2.7e-05 s⁻¹.

Turning to A42G U54G, in data set [1], the kcat was determined as 0.0467 ± 0.012 s⁻¹. The KM in data set [2] worked out at 2110 ± 650 µM. Besides, the “self-cleavage kobs at 40 uM GlcN6P” value in data set [7] was determined as 0.00111 ± 0.00022 s⁻¹. In addition, in data set [3], the “self-cleavage kobs at 160 uM GlcN6P” value was found to be 0.00287 ± 0.00056 s⁻¹. The “self-cleavage kobs at 640 uM GlcN6P” value in data set [4] was 0.0108 ± 0.0031 s⁻¹. In addition, in data set [5], the “self-cleavage kobs at 2500 uM GlcN6P” value turned out to be 0.0229 ± 0.0093 s⁻¹. The “self-cleavage kobs at 10000 uM GlcN6P” value in data set [6] was found to be 0.0409 ± 0.011 s⁻¹.

For G59A A64G, the kcat in data set [1] was determined as 9.06e-05 ± 1.3e-05 s⁻¹. The “self-cleavage kobs at 40 uM GlcN6P” value in data set [7] was less than 1e-05 s⁻¹. In addition, the “self-cleavage kobs at 2500 uM GlcN6P” value in data set [5] came to 6.66e-05 ± 2.7e-05 s⁻¹. The “self-cleavage kobs at 10000 uM GlcN6P” value in data set [6] was 7.67e-05 ± 1.6e-05 s⁻¹.

As for G13A U54A, in data set [1], the kcat was found to be 0.000832 ± 0.00029 s⁻¹. The “self-cleavage kobs at 40 uM GlcN6P” value in data set [7] is 5.62e-05 ± 2.4e-05 s⁻¹. In data set [3], the “self-cleavage kobs at 160 uM GlcN6P” value was determined as 5.51e-05 ± 1.6e-05 s⁻¹. Moreover, the “self-cleavage kobs at 640 uM GlcN6P” value in data set [4] was found to be 0.000147 ± 3.8e-05 s⁻¹. Further, the “self-cleavage kobs at 2500 uM GlcN6P” value in data set [5] was determined as 0.000299 ± 5.6e-05 s⁻¹. In addition, the “self-cleavage kobs at 10000 uM GlcN6P” value in data set [6] is 0.000709 ± 0.0001 s⁻¹.

As to A15U G66A, the kcat in data set [1] stood at 0.00705 ± 0.002 s⁻¹. For the same variant, the KM in data set [2] was 7800 ± 2800 µM. For the same variant, the “self-cleavage kobs at 40 uM GlcN6P” value in data set [7] was determined as 4.82e-05 ± 1.6e-05 s⁻¹. For the same variant, the “self-cleavage kobs at 160 uM GlcN6P” value in data set [3] turned out to be 0.000124 ± 2.4e-05 s⁻¹. In addition, in data set [4], the “self-cleavage kobs at 640 uM GlcN6P” value amounted to 0.000781 ± 0.00023 s⁻¹. Besides, the “self-cleavage kobs at 2500 uM GlcN6P” value in data set [5] is 0.00183 ± 0.00057 s⁻¹. Besides, the “self-cleavage kobs at 10000 uM GlcN6P” value in data set [6] worked out at 0.00391 ± 0.00065 s⁻¹.

On to G29C U55C, for which the kcat in data set [1] stood at 0.00285 ± 0.001 s⁻¹. Moreover, in data set [2], the KM stood at 3510 ± 1600 µM. Further, the “self-cleavage kobs at 40 uM GlcN6P” value in data set [7] stood at 5.28e-05 ± 1.7e-05 s⁻¹. The “self-cleavage kobs at 160 uM GlcN6P” value in data set [3] worked out at 0.00011 ± 1.7e-05 s⁻¹. In addition, in data set [4], the “self-cleavage kobs at 640 uM GlcN6P” value stood at 0.000561 ± 0.0001 s⁻¹. Moreover, in data set [5], the “self-cleavage kobs at 2500 uM GlcN6P” value is 0.00116 ± 0.00023 s⁻¹. Besides, the “self-cleavage kobs at 10000 uM GlcN6P” value in data set [6] is 0.00205 ± 0.00062 s⁻¹.

On to A6U U30C C68U, for which the catalytic constant (kcat) in data set [1] worked out at 2.13e-05 ± 7.2e-06 s⁻¹. Further, the “self-cleavage kobs at 640 uM GlcN6P” value in data set [4] is less than 1e-05 s⁻¹.

Consider U31C A39G, for which the kcat in data set [1] came to 0.018 ± 0.0061 s⁻¹. The KM in data set [2] was determined as 4940 ± 2200 µM. For the same variant, the “self-cleavage kobs at 40 uM GlcN6P” value in data set [7] worked out at 0.000253 ± 4.8e-05 s⁻¹. Further, in data set [3], the “self-cleavage kobs at 160 uM GlcN6P” value came out at 0.000489 ± 8.5e-05 s⁻¹. Besides, the “self-cleavage kobs at 640 uM GlcN6P” value in data set [4] was determined as 0.00212 ± 0.00039 s⁻¹. In addition, the “self-cleavage kobs at 2500 uM GlcN6P” value in data set [5] is 0.00524 ± 0.0013 s⁻¹. In data set [6], the “self-cleavage kobs at 10000 uM GlcN6P” value is 0.0125 ± 0.0018 s⁻¹.

For C58A U65G, the kcat in data set [1] was 5.13e-05 ± 1.3e-05 s⁻¹. The “self-cleavage kobs at 2500 uM GlcN6P” value in data set [5] stood at 4.93e-05 ± 1.3e-05 s⁻¹. Also, the “self-cleavage kobs at 10000 uM GlcN6P” value in data set [6] is 4.32e-05 ± 1.3e-05 s⁻¹.

Regarding G35A G37A, the kcat in data set [1] was less than 1e-05 s⁻¹. Besides, in data set [3], the “self-cleavage kobs at 160 uM GlcN6P” value was less than 1e-05 s⁻¹.

Take G7A G38A: the kcat in data set [1] is less than 1e-05 s⁻¹.
